Test results as given in PMC6850650, “Superfolder mTurquoise2^ox optimized for the bacterial periplasm allows high efficiency in vivo FRET of cell division antibiotic targets” (Molecular Microbiology, 2019).

T1: FtsL-mNG (E. coli, UniProt P0AEN4 1-121)
T1 construct: cell division protein FtsL of E. coli; The end of the FP is read from the printed name FtsL-mNG; source: E. coli, from plasmid, in the cells (FP in the periplasm); not shown: mNeongreen, C-terminal, kept
T1 sequence (looked up): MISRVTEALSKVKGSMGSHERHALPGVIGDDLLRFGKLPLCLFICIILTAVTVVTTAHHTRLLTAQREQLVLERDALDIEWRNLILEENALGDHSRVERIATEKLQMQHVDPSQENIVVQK

T2: FtsB-mNG (E. coli, UniProt P0A6S5 1-103)
T2 construct: cell division protein FtsB of E. coli; The end of the FP is read from the printed name; also called wild-type FtsB-mNG; source: E. coli, from plasmid, in the cells (FP in the periplasm); not shown: mNeongreen, C-terminal, kept
T2 sequence (looked up): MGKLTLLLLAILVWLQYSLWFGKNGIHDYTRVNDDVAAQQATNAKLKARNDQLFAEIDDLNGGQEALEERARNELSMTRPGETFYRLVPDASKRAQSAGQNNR


Columns and labels:
Test in all cases: FRET or BRET; in vivo in the periplasm of E. coli; donor sfTq2 or sfTq2^ox, acceptor mNG, each fused to one partner; emission spectra taken with a fluorometer and unmixed, EfA from sensitised emission; PBP5 dimerisation in CS109 ΔdacA, controls in LMC500 and CS109 ΔdacA
[1] = molecular target: the molecule itself
FtsL-mNG = molecular target: T1, FtsL-mNG; conditions: partners not purified
FtsB-mNG = molecular target: T2, FtsB-mNG; conditions: partners not purified

| Binder | EfA (FRET efficiency) [1] [%] | also measured |
| --- | --- | --- |
| PBP5 (D,D-carboxypeptidase) fused to sfTq2 (donor copy) or mNeongreen (acceptor copy) (enzyme, E. coli, UniProt P0AEB2 30-403, looked up, PBP5 (D,D-carboxypeptidase, encoded by dacA) of E. coli; Self-association measured between two differently fused copies (sfTq2-PBP5 and mNG-PBP5); PBP5's own signal peptide is probably replaced by that of DsbA (surmised); also called sfTq2-PBP5; DsbA^ss-FP-PBP5; source: E. coli CS109 ΔdacA, from plasmid, in the periplasm of the cells; not shown: sfTq2 (on the donor copy), N-terminal, kept; …) DDLNIKTMIPGVPQIDAESYILIDYNSGKVLAEQNADVRRDPASLTKMMTSYVIGQAMKAGKFKETDLVTIGNDAWATGNPVFKGSSLMFLKPGMQVPVSQLIRGINLQSGNDACVAMADFAAGSQDAFVGLMNSYVNALGLKNTHFQTVHGLDADGQYSSARDMALIGQALIRDVPNEYSIYKEKEFTFNGIRQLNRNGLLWDNSLNVDGIKTGHTDKAGYNLVASATEGQMRLISAVMGGRTFKGREAESKKLLTWGFRFFETVNPLKVGKEFASEPVWFGDSDRASLGVDKDVYLTIPRGRMKDLKASYVLNSSELHAPLQKNQVVGTINFQLDGKTIEQRPLVVLQEIPEGNFFGKIIDYIKLMFHHWFG | 4.2 | – |
| PBP5^S44G (inactive mutant) fused to sfTq2 (donor copy) or mNeongreen (acceptor copy) (enzyme, E. coli, UniProt P0AEB2 30-403, looked up, PBP5 (D,D-carboxypeptidase, encoded by dacA) of E. coli with S44G; Self-association measured between two differently fused copies; source: E. coli CS109 ΔdacA, from plasmid, in the periplasm of the cells; not shown: sfTq2 (on the donor copy), N-terminal, kept; mNeongreen (on the acceptor copy), N-terminal, kept) DDLNIKTMIPGVPQIDAESYILIDYNSGKVLAEQNADVRRDPAGLTKMMTSYVIGQAMKAGKFKETDLVTIGNDAWATGNPVFKGSSLMFLKPGMQVPVSQLIRGINLQSGNDACVAMADFAAGSQDAFVGLMNSYVNALGLKNTHFQTVHGLDADGQYSSARDMALIGQALIRDVPNEYSIYKEKEFTFNGIRQLNRNGLLWDNSLNVDGIKTGHTDKAGYNLVASATEGQMRLISAVMGGRTFKGREAESKKLLTWGFRFFETVNPLKVGKEFASEPVWFGDSDRASLGVDKDVYLTIPRGRMKDLKASYVLNSSELHAPLQKNQVVGTINFQLDGKTIEQRPLVVLQEIPEGNFFGKIIDYIKLMFHHWFG | 8.8 | – |
| FtsB-sfTq2^ox (natural protein, E. coli, UniProt P0A6S5 1-103, looked up, cell division protein FtsB of E. coli; The end of the FP is read from the printed name FtsB-sfTq2^ox; source: E. coli, from plasmid, in the cells (FP in the periplasm); not shown: sfTq2^ox, C-terminal, kept) MGKLTLLLLAILVWLQYSLWFGKNGIHDYTRVNDDVAAQQATNAKLKARNDQLFAEIDDLNGGQEALEERARNELSMTRPGETFYRLVPDASKRAQSAGQNNR | – | EfA (FRET efficiency) (FtsL-mNG): 19.2% |
| FtsL-sfTq2^ox (natural protein, E. coli, UniProt P0AEN4 1-121, looked up, cell division protein FtsL of E. coli; The end of the FP is read from the printed name; source: E. coli, from plasmid, in the cells (FP in the periplasm); not shown: sfTq2^ox, C-terminal, kept) MISRVTEALSKVKGSMGSHERHALPGVIGDDLLRFGKLPLCLFICIILTAVTVVTTAHHTRLLTAQREQLVLERDALDIEWRNLILEENALGDHSRVERIATEKLQMQHVDPSQENIVVQK | – | EfA (FRET efficiency) (FtsB-mNG): 15.6% |
